From PMC3797246 (Structure (London, England : 1993), 2013)

T1: SARAH domain of human RASSF5 (RASSF5^SARAH, residues 366-413) (human, UniProt Q8WWW0 366-413)
T1 chain (looked up): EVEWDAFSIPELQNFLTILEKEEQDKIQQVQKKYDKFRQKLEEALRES


Experiments:
co-IP = biological target: the molecule itself; assay: co-IP
AUC = biological target: the molecule itself; assay: AUC
SEC = biological target: the molecule itself; assay: SEC
[1] = biological target: T1, SARAH domain of human RASSF5 …; assay: SEC

Binder | binding compared to wild-type Mst2 (co-IP) [%] | other results
Mst2 D456A, full-length, in vitro translated (enzyme, human, UniProt Q13188 1-491, looked up, 35S-methionine label) MEQPPAPKSKLKKLSEDSLTKQPEEVFDVLEKLGEGSYGSVFKAIHKESGQVVAIKQVPVESDLQEIIKEISIMQQCDSPYVVKYYGSYFKNTDLWIVMEYCGAGSVSDIIRLRNKTLIEDEIATILKSTLKGLEYLHFMRKIHRDIKAGNILLNTEGHAKLADFGVAGQLTDTMAKRNTVIGTPFWMAPEVIQEIGYNCVADIWSLGITSIEMAEGKPPYADIHPMRAIFMIPTNPPPTFRKPELWSDDFTDFVKKCLVKNPEQRATATQLLQHPFIKNAKPVSILRDLITEAMEIKAKRHEEQQRELEEEEENSDEDELDSHTMVKTSVESVGTMRATSTMSEGAQTMIEHNSTMLESDLGTMVINSEDEEEEDGTMKRNATSPQVQRPSFMDYFDKQDFKNKSHENCNQNMHEPFPMSKNVFPDNWKVPQDGDFDFLKNLSLEELQMRLKALAPMMEREIEELRQRYTAKRQPILDAMDAKKRRQQNF | ≥ 30 | 
Mst2 K473A, full-length, in vitro translated (enzyme, human, UniProt Q13188 1-491, looked up, 35S-methionine label) MEQPPAPKSKLKKLSEDSLTKQPEEVFDVLEKLGEGSYGSVFKAIHKESGQVVAIKQVPVESDLQEIIKEISIMQQCDSPYVVKYYGSYFKNTDLWIVMEYCGAGSVSDIIRLRNKTLIEDEIATILKSTLKGLEYLHFMRKIHRDIKAGNILLNTEGHAKLADFGVAGQLTDTMAKRNTVIGTPFWMAPEVIQEIGYNCVADIWSLGITSIEMAEGKPPYADIHPMRAIFMIPTNPPPTFRKPELWSDDFTDFVKKCLVKNPEQRATATQLLQHPFIKNAKPVSILRDLITEAMEIKAKRHEEQQRELEEEEENSDEDELDSHTMVKTSVESVGTMRATSTMSEGAQTMIEHNSTMLESDLGTMVINSEDEEEEDGTMKRNATSPQVQRPSFMDYFDKQDFKNKSHENCNQNMHEPFPMSKNVFPDNWKVPQDGDFDFLKNLSLEELQMRLKALDPMMEREIEELRQRYTAARQPILDAMDAKKRRQQNF | ≥ 30 | 
Mst2 R467A, full-length, in vitro translated (enzyme, human, UniProt Q13188 1-491, looked up, 35S-methionine label) MEQPPAPKSKLKKLSEDSLTKQPEEVFDVLEKLGEGSYGSVFKAIHKESGQVVAIKQVPVESDLQEIIKEISIMQQCDSPYVVKYYGSYFKNTDLWIVMEYCGAGSVSDIIRLRNKTLIEDEIATILKSTLKGLEYLHFMRKIHRDIKAGNILLNTEGHAKLADFGVAGQLTDTMAKRNTVIGTPFWMAPEVIQEIGYNCVADIWSLGITSIEMAEGKPPYADIHPMRAIFMIPTNPPPTFRKPELWSDDFTDFVKKCLVKNPEQRATATQLLQHPFIKNAKPVSILRDLITEAMEIKAKRHEEQQRELEEEEENSDEDELDSHTMVKTSVESVGTMRATSTMSEGAQTMIEHNSTMLESDLGTMVINSEDEEEEDGTMKRNATSPQVQRPSFMDYFDKQDFKNKSHENCNQNMHEPFPMSKNVFPDNWKVPQDGDFDFLKNLSLEELQMRLKALDPMMEREIEELAQRYTAKRQPILDAMDAKKRRQQNF | ≥ 30 | 
Mst2 L466A, full-length, in vitro translated (enzyme, human, UniProt Q13188 1-491, looked up, 35S-methionine label) MEQPPAPKSKLKKLSEDSLTKQPEEVFDVLEKLGEGSYGSVFKAIHKESGQVVAIKQVPVESDLQEIIKEISIMQQCDSPYVVKYYGSYFKNTDLWIVMEYCGAGSVSDIIRLRNKTLIEDEIATILKSTLKGLEYLHFMRKIHRDIKAGNILLNTEGHAKLADFGVAGQLTDTMAKRNTVIGTPFWMAPEVIQEIGYNCVADIWSLGITSIEMAEGKPPYADIHPMRAIFMIPTNPPPTFRKPELWSDDFTDFVKKCLVKNPEQRATATQLLQHPFIKNAKPVSILRDLITEAMEIKAKRHEEQQRELEEEEENSDEDELDSHTMVKTSVESVGTMRATSTMSEGAQTMIEHNSTMLESDLGTMVINSEDEEEEDGTMKRNATSPQVQRPSFMDYFDKQDFKNKSHENCNQNMHEPFPMSKNVFPDNWKVPQDGDFDFLKNLSLEELQMRLKALDPMMEREIEEARQRYTAKRQPILDAMDAKKRRQQNF | ≥ 30 | 
Mst2 R469A, full-length, in vitro translated (enzyme, human, UniProt Q13188 1-491, looked up, 35S-methionine label) MEQPPAPKSKLKKLSEDSLTKQPEEVFDVLEKLGEGSYGSVFKAIHKESGQVVAIKQVPVESDLQEIIKEISIMQQCDSPYVVKYYGSYFKNTDLWIVMEYCGAGSVSDIIRLRNKTLIEDEIATILKSTLKGLEYLHFMRKIHRDIKAGNILLNTEGHAKLADFGVAGQLTDTMAKRNTVIGTPFWMAPEVIQEIGYNCVADIWSLGITSIEMAEGKPPYADIHPMRAIFMIPTNPPPTFRKPELWSDDFTDFVKKCLVKNPEQRATATQLLQHPFIKNAKPVSILRDLITEAMEIKAKRHEEQQRELEEEEENSDEDELDSHTMVKTSVESVGTMRATSTMSEGAQTMIEHNSTMLESDLGTMVINSEDEEEEDGTMKRNATSPQVQRPSFMDYFDKQDFKNKSHENCNQNMHEPFPMSKNVFPDNWKVPQDGDFDFLKNLSLEELQMRLKALDPMMEREIEELRQAYTAKRQPILDAMDAKKRRQQNF | ≥ 30 | 
Mst2 L445A, full-length, in vitro translated (enzyme, human, UniProt Q13188 1-491, looked up, 35S-methionine label) MEQPPAPKSKLKKLSEDSLTKQPEEVFDVLEKLGEGSYGSVFKAIHKESGQVVAIKQVPVESDLQEIIKEISIMQQCDSPYVVKYYGSYFKNTDLWIVMEYCGAGSVSDIIRLRNKTLIEDEIATILKSTLKGLEYLHFMRKIHRDIKAGNILLNTEGHAKLADFGVAGQLTDTMAKRNTVIGTPFWMAPEVIQEIGYNCVADIWSLGITSIEMAEGKPPYADIHPMRAIFMIPTNPPPTFRKPELWSDDFTDFVKKCLVKNPEQRATATQLLQHPFIKNAKPVSILRDLITEAMEIKAKRHEEQQRELEEEEENSDEDELDSHTMVKTSVESVGTMRATSTMSEGAQTMIEHNSTMLESDLGTMVINSEDEEEEDGTMKRNATSPQVQRPSFMDYFDKQDFKNKSHENCNQNMHEPFPMSKNVFPDNWKVPQDGDFDFLKNLSAEELQMRLKALDPMMEREIEELRQRYTAKRQPILDAMDAKKRRQQNF | ≥ 30 | 
Mst2 R474A, full-length, in vitro translated (enzyme, human, UniProt Q13188 1-491, looked up, 35S-methionine label) MEQPPAPKSKLKKLSEDSLTKQPEEVFDVLEKLGEGSYGSVFKAIHKESGQVVAIKQVPVESDLQEIIKEISIMQQCDSPYVVKYYGSYFKNTDLWIVMEYCGAGSVSDIIRLRNKTLIEDEIATILKSTLKGLEYLHFMRKIHRDIKAGNILLNTEGHAKLADFGVAGQLTDTMAKRNTVIGTPFWMAPEVIQEIGYNCVADIWSLGITSIEMAEGKPPYADIHPMRAIFMIPTNPPPTFRKPELWSDDFTDFVKKCLVKNPEQRATATQLLQHPFIKNAKPVSILRDLITEAMEIKAKRHEEQQRELEEEEENSDEDELDSHTMVKTSVESVGTMRATSTMSEGAQTMIEHNSTMLESDLGTMVINSEDEEEEDGTMKRNATSPQVQRPSFMDYFDKQDFKNKSHENCNQNMHEPFPMSKNVFPDNWKVPQDGDFDFLKNLSLEELQMRLKALDPMMEREIEELRQRYTAKAQPILDAMDAKKRRQQNF | ≥ 30 | 
catalytically inactive mutant of the human Mst2 kinase domain (Mst2^KD/D146N) (domain or fragment, UniProt Q13188 16-313, looked up) EDSLTKQPEEVFDVLEKLGEGSYGSVFKAIHKESGQVVAIKQVPVESDLQEIIKEISIMQQCDSPYVVKYYGSYFKNTDLWIVMEYCGAGSVSDIIRLRNKTLIEDEIATILKSTLKGLEYLHFMRKIHRNIKAGNILLNTEGHAKLADFGVAGQLTDTMAKRNTVIGTPFWMAPEVIQEIGYNCVADIWSLGITSIEMAEGKPPYADIHPMRAIFMIPTNPPPTFRKPELWSDDFTDFVKKCLVKNPEQRATATQLLQHPFIKNAKPVSILRDLITEAMEIKAKRHEEQQRELEEEE |  | stoichiometry N (AUC): 2
full-length Mst2 (Mst2^FL, residues 9-491) (enzyme, human, UniProt Q13188 9-491, looked up, phosphorylated at the activation loop (T180) as purified from bacteria) SKLKKLSEDSLTKQPEEVFDVLEKLGEGSYGSVFKAIHKESGQVVAIKQVPVESDLQEIIKEISIMQQCDSPYVVKYYGSYFKNTDLWIVMEYCGAGSVSDIIRLRNKTLIEDEIATILKSTLKGLEYLHFMRKIHRDIKAGNILLNTEGHAKLADFGVAGQLTDTMAKRNTVIGTPFWMAPEVIQEIGYNCVADIWSLGITSIEMAEGKPPYADIHPMRAIFMIPTNPPPTFRKPELWSDDFTDFVKKCLVKNPEQRATATQLLQHPFIKNAKPVSILRDLITEAMEIKAKRHEEQQRELEEEEENSDEDELDSHTMVKTSVESVGTMRATSTMSEGAQTMIEHNSTMLESDLGTMVINSEDEEEEDGTMKRNATSPQVQRPSFMDYFDKQDFKNKSHENCNQNMHEPFPMSKNVFPDNWKVPQDGDFDFLKNLSLEELQMRLKALDPMMEREIEELRQRYTAKRQPILDAMDAKKRRQQNF |  | stoichiometry N (SEC): 2
linker-deletion Mst2 (Mst2^ΔL, residues 9-313 and 428-491) (enzyme, human, UniProt Q13188 9-313, looked up) SKLKKLSEDSLTKQPEEVFDVLEKLGEGSYGSVFKAIHKESGQVVAIKQVPVESDLQEIIKEISIMQQCDSPYVVKYYGSYFKNTDLWIVMEYCGAGSVSDIIRLRNKTLIEDEIATILKSTLKGLEYLHFMRKIHRDIKAGNILLNTEGHAKLADFGVAGQLTDTMAKRNTVIGTPFWMAPEVIQEIGYNCVADIWSLGITSIEMAEGKPPYADIHPMRAIFMIPTNPPPTFRKPELWSDDFTDFVKKCLVKNPEQRATATQLLQHPFIKNAKPVSILRDLITEAMEIKAKRHEEQQRELEEEENWKVPQDGDFDFLKNLSLEELQMRLKALDPMMEREIEELRQRYTAKRQPILDAMDAKKRRQQNF |  | binding result [1]: binds
